Source: IntAct's records for PubMed 15572661

B1: Androgen receptor (Homo sapiens), P10275 (parent)
chain: MEVQLGLGRVYPRPPSKTYRGAFQNLFQSVREVIQNPGPRHPEAASAAPPGASLLLLQQQQQQQQQQQQQQQQQQQQQQQETSPRQQQQQQGEDGSPQAHRRGPTGYLVLDEEQQPSQPQSALECHPERGCVPEPGAAVAASKGLPQQLPAPPDEDDSAAPSTLSLLGPTFPGLSSCSADLKDILSEASTMQLLQQQQQEAVSEGSSSGRAREASGAPTSSKDNYLGGTSTISDNAKELCKAVSVSMGLGVEALEHLSPGEQLRGDCMYAPLLGVPPAVRPTPCAPLAECKGSLLDDSAGKSTEDTAEYSPFKGGYTKGLEGESLGCSGSAAAGSSGTLELPSTLSLYKSGALDEAAAYQSRDYYNFPLALAGPPPPPPPPHPHARIKLENPLDYGSAWAAAAAQCRYGDLASLHGAGAAGPGSGSPSAAASSSWHTLFTAEEGQLYGPCGGGGGGGGGGGGGGGGGGGGGGGEAGAVAPYGYTRPPQGLAGQESDFTAPDVWYPGGMVSRVPYPSPTCVKSEMGPWMDSYSGPYGDMRLETARDHVLPIDYYFPPQKTCLICGDEASGCHYGALTCGSCKVFFKRAAEGKQKYLCASRNDCTIDKFRRKNCPSCRLRKCYEAGMTLGARKLKKLGNLKLQEEGEASSTTSPTEETTQKLTVSHIEGYECQPIFLNVLEAIEPGVVCAGHDNNQPDSFAALLSSLNELGERQLVHVVKWAKALPGFRNLHVDDQMAVIQYSWMGLMVFAMGWRSFTNVNSRMLYFAPDLVFNEYRMHKSRMYSQCVRMRHLSQEFGWLQITPQEFLCMKALLLFSIIPVDGLKNQKFFDELRMNYIKELDRIIACKRKNPTSCSRRFYQLTKLLDSVQPIARELHQFTFDLLIKSHMVSVDFPEMMAEIISVQVPKILSGKVKPIYFHTQ

Variants of: B1
Conditions: with daxx_human DAXX

Variant | effect of a mutation on the interaction
K388R;K521R | decreasing interaction strength
